A short description of this data set: Thioflavin T fluorescence of protein solutions. To be noted: initial, compared with native β2GPI purified from plasma. In kind it is physicochemical. As for the experimental part: Fluorescence of ThT—protein/peptide adducts was measured as follows. […] Fluorescence was measured at 485 nm upon excitation at 435 nm. Background signals from buffer, buffer with ThT and protein/peptide solution without ThT were subtracted from corresponding measurements with protein solution incubated with ThT. Regularly, fluorescence of Aβ was used as a positive control, and fluorescence of FP10, a non-amyloid fibrin fragment^16, was used as a negative control. Fluorescence was measured in triplicate on a Hitachi F-4500 fluorescence spectrophotometer (Ltd., Tokyo, Japan).
Formulated protein therapeutics were obtained from the local hospital pharmacy and were used as supplied by the manufacturers. […] Lyophilized therapeutics were dissolved according to the manufacturers recommendations. GH, zinc-insulin, Cealb and gelatin were stored at −20, 4, room temperature, 37 and 65° C. Other protein therapeutics were only kept at 4° C., and assayed for the presence of cross-β structure at shown time points. Enhancement in fluorescence of ThT and Congo red was measured with all formulated protein therapeutics. […]
ThT fluorescence of β2GPI was measured as follows. […] In the ThT fluorescence assay, fluorescence of β2GPI in buffer, of CL or DXS500k in buffer, of buffer and ThT alone, and of β2GPI-CL adducts and β2GPI-DXS500k adducts, with or without ThT, was recorded as described above (section ThT fluorescence). In addition, TEM images were recorded with CL, β2GPI from human plasma, with or without CL, and with recombinant β2GPI, as described^5.
To prepare structurally altered ovalbumin (OVA) with amyloid cross-β structures, purified OVA (Sigma, A-7641, lot 071k7094) was heated to 85° C. […] Native OVA (nOVA) and heat-denatured OVA (dOVA) were tested in the ThT fluorescence assay and in the Plg-activation assay. In the fluorescence assay and in the Plg-activation assay, 25 and 100 μg ml^−1 nOVA and dOVA were tested, respectively. […]
MSA (#126674, Calbiochem) was dissolved in 8 M urea, 100 mM Tris-HCl pH 8.2, at 10 mg ml^−1 final concentration. […] The presence of aggregates or fibrils was analyzed using TEM. […]

Experimental findings from patent US20080220446A1, “Method for Detecting and/or Removing Protein and/or Peptide Comprising a Cross-Beta Structure From an Aqueous Solution Comprising a Protein” (priority 2005, published 2008) are described below.

B1: recombinant β2GPI: recombinant human β2-glycoprotein I made using insect cells (protein)
chain: GRTCPKPDDLPFSTVVPLKTFYEPGEEITYSCKPGYVSRGGMRKFICPLTGLWPINTLKCTPRVCPFAGILENGAVRYTTFEYPNTISFSCNTGFYLNGADSAKCTEEGKWSPELPVCAPIICPPPSIPTFATLRVYKPSAGNNSLYRDTAVFECLPQHAMFGNDTITCTTHGNWTKLPECREVKCPFPSRPDNGFVNYPAKPTLYYKDKATFGCHDGYSLDGPEEIECTKLGNWSAMPSCKASCKVPVKKATVVYQGERVKIQEKFKNGMLHGDKVSFFCKNKEKKCSYTEDAQCIDGTIEVPKCFKEHSSLAFWKTDASDVKPC
On to B1, for which the ThT fluorescence signal entry is on record as “higher ThT fluorescence signal than native β2GPI purified from plasma”.
